Where two headings read alike, the source gives them in different places. Where no end group is shown, it is not given here.

The target in assay [1] is T1, bovine pancreatic kallikrein (bovine).
T1 construct: also called immobilized bovine pancreatic kallikrein; kallikrein-sepharose
As to the kind of experiment: enzyme inhibition kinetics, kallikrein 92.0 pM.

Assay [2] addresses Bovine chymotrypsin (bovine, UniProt P00766 1-245). As to the kind of experiment: enzyme inhibition kinetics, chymotrypsin 5 nM.
The target in assay [3] is T2, bovine trypsin (type III) (bovine, UniProt P00760 24-246).
T2 construct: Active enzyme, active-site titrated
The experiment in a line: enzyme inhibition kinetics, trypsin 48.5 pM.

In assay [4] the target is T3, human plasmin (human, UniProt P00747 97-810).
T3 construct: Active enzyme
The experiment in a line: enzyme inhibition kinetics, plasmin 50 pM.

For assay [5], the target named is T4, Factor XIa (Homo sapiens (Human), UniProt P03951 19-387; P03951 388-625, Activated enzyme cleaved after Arg387 of the precursor. The native molecule is a disulfide-linked homodimer of heavy-plu [CUT]).
T4 construct: also called FXIa
As to the kind of experiment: enzyme inhibition kinetics, factor XIa 0.1 nM.

Assay [6] concerns the target T1, bovine pancreatic kallikrein. As to the kind of experiment: enzyme inhibition kinetics, kallikrein 100 pM.
The target in assay [7] is T3, human plasmin. As to the kind of experiment: enzyme inhibition kinetics, plasmin 50 pM. The source holds these as a separate data set.
Assay [8] addresses T5, human plasma kallikrein (human, UniProt P03952 20-638).
T5 construct: Active enzyme
As to the kind of experiment: enzyme inhibition kinetics, kallikrein 2.5 nM.

Assay [9] concerns the target human factor Xa (human, UniProt P00742 41-488, limits assumed). The experiment in a line: enzyme inhibition kinetics, factor Xa 0.87 nM.
The target in assay [10] is T6, tissue plasminogen activator (single chain form from human melanoma cell culture) (human, UniProt P00750 36-562, limits assumed).
T6 construct: also called tPA
As to the kind of experiment: enzyme inhibition, tPA 7.5 nM, chromogenic pNA substrate.

Assay [11] has as its target T2, bovine trypsin (type III). The experiment in a line: enzyme inhibition kinetics, trypsin 48.5 pM. The source holds these as a separate data set.
Assay [12] addresses T7, Tissue Factor VIIa.
T7 construct: Complex of tissue factor and factor VIIa; no method is described for it; also called tissue factor VIIa complex
The experiment in a line: enzyme inhibition.

In assay [13] the target is human tissue kallikrein (human, UniProt P06870 25-262). As to the kind of experiment: enzyme inhibition kinetics, tissue kallikrein 0.35 nM, PFR-AMC substrate.
human tissue kallikrein, sequence (P06870 25-262 limits assumed): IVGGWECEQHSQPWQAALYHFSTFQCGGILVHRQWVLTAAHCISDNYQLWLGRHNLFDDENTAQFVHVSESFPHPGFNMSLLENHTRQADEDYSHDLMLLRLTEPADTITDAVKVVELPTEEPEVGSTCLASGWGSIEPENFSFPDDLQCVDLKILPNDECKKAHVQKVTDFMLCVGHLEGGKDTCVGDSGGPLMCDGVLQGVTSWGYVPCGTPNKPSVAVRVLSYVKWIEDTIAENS

T2 sequence (P00760 24-246): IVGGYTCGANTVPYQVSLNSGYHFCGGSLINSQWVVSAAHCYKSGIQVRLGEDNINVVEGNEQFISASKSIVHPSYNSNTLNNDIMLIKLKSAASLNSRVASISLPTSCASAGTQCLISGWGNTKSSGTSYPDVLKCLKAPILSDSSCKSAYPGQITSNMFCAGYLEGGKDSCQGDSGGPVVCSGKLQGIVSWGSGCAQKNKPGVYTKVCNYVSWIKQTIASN
T3 sequence (P00747 97-810 limits assumed): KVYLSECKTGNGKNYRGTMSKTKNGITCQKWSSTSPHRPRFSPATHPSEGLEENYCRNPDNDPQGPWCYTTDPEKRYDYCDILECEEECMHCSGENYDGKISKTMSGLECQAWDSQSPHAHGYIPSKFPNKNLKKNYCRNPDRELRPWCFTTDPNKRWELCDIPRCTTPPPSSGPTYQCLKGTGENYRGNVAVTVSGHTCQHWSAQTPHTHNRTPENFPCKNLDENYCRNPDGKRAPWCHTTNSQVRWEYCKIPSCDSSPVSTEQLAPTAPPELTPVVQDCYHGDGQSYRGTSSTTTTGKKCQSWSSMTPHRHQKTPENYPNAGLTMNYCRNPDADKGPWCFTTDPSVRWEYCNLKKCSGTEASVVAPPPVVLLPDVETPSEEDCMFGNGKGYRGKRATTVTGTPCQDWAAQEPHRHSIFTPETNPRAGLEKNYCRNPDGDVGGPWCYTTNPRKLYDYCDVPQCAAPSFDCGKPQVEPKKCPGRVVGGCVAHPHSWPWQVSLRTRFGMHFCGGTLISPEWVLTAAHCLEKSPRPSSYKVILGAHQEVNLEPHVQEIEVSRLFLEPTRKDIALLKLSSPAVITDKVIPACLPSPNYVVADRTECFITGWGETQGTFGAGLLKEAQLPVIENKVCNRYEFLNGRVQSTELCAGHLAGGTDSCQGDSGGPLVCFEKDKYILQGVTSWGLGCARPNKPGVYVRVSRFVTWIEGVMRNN
T6 sequence (P00750 36-562 limits assumed): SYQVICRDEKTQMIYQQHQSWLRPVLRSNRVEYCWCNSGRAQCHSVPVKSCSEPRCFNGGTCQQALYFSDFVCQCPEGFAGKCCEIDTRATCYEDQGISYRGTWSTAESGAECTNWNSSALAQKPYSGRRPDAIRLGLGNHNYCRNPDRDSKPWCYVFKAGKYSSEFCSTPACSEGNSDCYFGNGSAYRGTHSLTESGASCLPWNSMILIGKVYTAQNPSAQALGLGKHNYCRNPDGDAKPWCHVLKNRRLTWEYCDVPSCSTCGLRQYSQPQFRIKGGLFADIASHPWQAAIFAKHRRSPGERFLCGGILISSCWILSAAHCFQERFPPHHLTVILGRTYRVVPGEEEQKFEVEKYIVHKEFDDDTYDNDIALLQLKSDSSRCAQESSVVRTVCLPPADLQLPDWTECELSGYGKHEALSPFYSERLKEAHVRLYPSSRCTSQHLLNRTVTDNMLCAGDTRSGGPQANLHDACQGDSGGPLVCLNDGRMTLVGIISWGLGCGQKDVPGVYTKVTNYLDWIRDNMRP
T5 sequence (P03952 20-638 limits assumed): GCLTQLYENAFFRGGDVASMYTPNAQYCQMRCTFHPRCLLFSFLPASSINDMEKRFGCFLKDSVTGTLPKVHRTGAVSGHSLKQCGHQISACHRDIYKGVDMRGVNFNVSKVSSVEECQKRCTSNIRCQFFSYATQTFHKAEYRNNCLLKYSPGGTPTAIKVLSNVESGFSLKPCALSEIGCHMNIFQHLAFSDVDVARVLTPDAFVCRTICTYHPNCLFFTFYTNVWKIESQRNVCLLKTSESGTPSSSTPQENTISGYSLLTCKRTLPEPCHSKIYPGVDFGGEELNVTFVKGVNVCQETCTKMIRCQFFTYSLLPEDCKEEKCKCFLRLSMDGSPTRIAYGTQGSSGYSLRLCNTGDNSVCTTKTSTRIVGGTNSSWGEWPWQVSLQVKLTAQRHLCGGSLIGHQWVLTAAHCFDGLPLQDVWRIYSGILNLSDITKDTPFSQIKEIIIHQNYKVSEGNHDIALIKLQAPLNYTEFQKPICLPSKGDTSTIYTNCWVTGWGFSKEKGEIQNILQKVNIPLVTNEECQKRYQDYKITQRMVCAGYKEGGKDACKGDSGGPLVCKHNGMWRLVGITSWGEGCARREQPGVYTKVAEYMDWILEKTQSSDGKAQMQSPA
T4 sequence (P03951 19-387 limits assumed, form in doubt, chain 1 of 2): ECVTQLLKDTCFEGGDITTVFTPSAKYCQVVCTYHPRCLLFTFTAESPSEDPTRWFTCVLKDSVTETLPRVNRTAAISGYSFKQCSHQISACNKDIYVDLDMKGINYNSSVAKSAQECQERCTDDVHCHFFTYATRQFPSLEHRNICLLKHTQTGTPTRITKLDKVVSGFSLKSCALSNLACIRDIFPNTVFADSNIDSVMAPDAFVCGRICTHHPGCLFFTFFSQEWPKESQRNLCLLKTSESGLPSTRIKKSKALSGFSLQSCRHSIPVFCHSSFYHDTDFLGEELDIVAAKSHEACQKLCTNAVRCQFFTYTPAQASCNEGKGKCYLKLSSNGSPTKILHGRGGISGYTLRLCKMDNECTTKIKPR
T4 sequence (P03951 388-625 limits assumed, form in doubt, chain 2 of 2): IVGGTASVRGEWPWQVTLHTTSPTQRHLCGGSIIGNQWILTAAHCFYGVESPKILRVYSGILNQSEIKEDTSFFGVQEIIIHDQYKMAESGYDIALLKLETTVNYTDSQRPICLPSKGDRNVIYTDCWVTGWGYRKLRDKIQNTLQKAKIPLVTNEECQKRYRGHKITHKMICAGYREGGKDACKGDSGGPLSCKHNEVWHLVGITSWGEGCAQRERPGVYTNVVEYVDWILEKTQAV

B1: synthetic placental bikunin (7-64), first preparation (other)
chain: IHDFCLVSKVVGRCRASMPRWWYNVTDGSCQLFVYGGCDGNSNNYLTKEECLKKCATV
modifications: ends and bridges not checked; also: may be incompletely deprotected before refolding
notes: also called placental bikunin fragment (7-64); KID1
Regarding B1, the inhibition constant Ki (commonly a dissociation constant, usually derived from enzyme kinetics or from competition with a known ligand) in [1] is 0.4 nM; in [2], 0.6 nM.

B2: native human placental bikunin isolated from human placenta (other)
chain: ADRERSIHDFCLVSKVVGRCRASMPRWWYNVTDGSCQLFVYGGCDGNSNNYLTKEECLKKCATVTENATGDLATSRNAADSSVPSAPRRQDSEDHSSDMFNYEEYCTANAVTGPCRASFPRWYFDVERNSCNNFIYGGCRGNKNSYRSEEACMLRCFRQQENPPLPLGSKVVVLAGAVS
modifications: asparagine 30 silent in sequencing, likely glycosylated
notes: Soluble protein purified from placenta; A minor species starts at residue 6; also called native Placental Bikunin (1-179)
Regarding B2, the inhibitory constant (Ki) in [3] was 0.13 nM; in [4], 1.9 nM.

B3: recombinant placental bikunin (1-170) from baculovirus / Sf9 cells (other)
chain: ADRERSIHDFCLVSKVVGRCRASMPRWWYNVTDGSCQLFVYGGCDGNSNNYLTKEECLKKCATVTENATGDLATSRNAADSSVPSAPRRQDSEDHSSDMFNYEEYCTANAVTGPCRASFPRWYFDVERNSCNNFIYGGCRGNKNSYRSEEACMLRCFRQQENPPLPLGSK
modifications: asparagine 30 silent in sequencing, consistent with glycosylation
notes: signal peptide correctly removed (N-terminus ADRER); also called Recombinant Bikunin; Sf9-derived human placental bikunin (1-170)
As to B3, the Ki in assay [5] is 3 nM; in [6] it was 0.12 nM; in [7], 0.23 nM; in assay [8], 0.18 nM; in assay [9] it was 180 nM; in [10], less than 60 nM. The Ki turned out to be 0.064 nM in [11], 800 nM in assay [12] and 0.04 nM in assay [13].

(Values after patent publication EP1752538A1 (BAYER CORPORATION, dated 1997).)
